Laboratory results from publication PMC6491591.

Legend:
[1] = target: endogenous Protein Kinase A catalytic subunit (PKA-Cα) of COS-1 cells; experiment: co-immunoprecipitation (IP: V5 antibody), western blot band intensity quantified with ImageJ; conditions: COS-1 cells expressing GRTH-V5, parent: est. 1.1, read off a plot
[2] = target: endogenous Protein Kinase A catalytic subunit (PKA-Cα) of COS-1 cells; experiment: co-immunoprecipitation (IP: PKA-Cα antibody), western blot band intensity quantified with ImageJ; conditions: COS-1 cells expressing GRTH-V5, parent: est. 1.1, read off a plot

Row | response (Arbitrary units) [1] | response (Arbitrary units) [2] | Substance
1 | 0.68 | 0.76 | Gonadotropin Regulated Testicular Helicase (GRTH/DDX25), wild type, V5-His tagged (from UniProt Q9UHL0) E165A; K240A
2 | 0.34 | 0.34 | Gonadotropin Regulated Testicular Helicase (GRTH/DDX25), wild type, V5-His tagged (from UniProt Q9UHL0) T239A
3 | 0.88 | 0.88 | Gonadotropin Regulated Testicular Helicase (GRTH/DDX25), wild type, V5-His tagged (from UniProt Q9UHL0) E165A
